Test results taken from article PMC7268104, “WRKY Transcription Factor OsWRKY29 Represses Seed Dormancy in Rice by Weakening Abscisic Acid Response”.

Molecular target: OsWRKY29-MBP (Oryza sativa (rice; cv. Hwayoung?), UniProt Q6IEQ2 1-288)
Assay: EMSA; unlabeled probe competes dose-dependently; LightShift Chemiluminescent EMSA kit binding buffer, 1 ug protein in 20 ul, room temperature, 30 min; 6.5% native PAGE, 0.5x TBE; salt and pH not stated
Details: protein: recombinant; tags: MBP (pMAL-c2x fusion); blunt

OsWRKY29-MBP, sequence (Q6IEQ2 entry or part of it): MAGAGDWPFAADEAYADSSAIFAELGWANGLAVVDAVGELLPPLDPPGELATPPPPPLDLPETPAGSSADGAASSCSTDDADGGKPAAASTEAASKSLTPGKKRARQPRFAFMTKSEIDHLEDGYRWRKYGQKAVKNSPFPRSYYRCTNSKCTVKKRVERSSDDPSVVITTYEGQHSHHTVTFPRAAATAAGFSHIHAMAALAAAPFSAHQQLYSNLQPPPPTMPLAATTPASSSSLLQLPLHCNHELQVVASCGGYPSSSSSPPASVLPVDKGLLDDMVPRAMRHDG

Binder | binding result
OsABF1 promoter A1 probe (dsDNA) DNA 1: AGCGTTAAAGCCATATGTTAAGAACGCGTTGACGAGAAGCTCGAGTTTGAGGTTATGGCC DNA 2: GGCCATAACCTCAAACTCGAGCTTCTCGTCAACGCGTTCTTAACATATGGCTTTAACGCT | binds
OsVP1 promoter V3 probe (dsDNA) DNA 1: CGGTCAAAACCAGCACGCGCCGAAATCCCGTACTTCCCACTGACACGTAGGCCCCACTGTCATTGACCG DNA 2: CGGTCAATGACAGTGGGGCCTACGTGTCAGTGGGAAGTACGGGATTTCGGCGCGTGCTGGTTTTGACCG | binds
OsVP1 promoter V1 probe (dsDNA) DNA 1: TCAACCTACCATATCGCTCAAATGATTGTTGACCTGTAACACCCAACGACCTTTATTTAC DNA 2: GTAAATAAAGGTCGTTGGGTGTTACAGGTCAACAATCATTTGAGCGATATGGTAGGTTGA | binds
